Sequences and labels used below:
B1: MNAT1 (parent)
chain: SLREYNDFLEEVEEIVFNLTNNVD
B2: MLL5 (parent)
chain: DCMGIDRQHIPDTYLCERCQPRNL
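Further: lentivirally expressed fusions sorted by FACS into six bins by GFP to DsRed ratio, PSI derived from sequencing read proportions per bin multiplied by bin number.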

In the first data set the parent is B1. Description: protein stability index of a GFP-peptide fusion (GPS, HEK-293T) (PSI 1-6); higher = more stable. The settings on record: c terminus: a fixed tail appended.
With SLREYNDFLEEVEEIVFNLTNNRD, the protein stability index turned out to be 2.18.
Consider SLREYNDFLEEVEEIVFNLTNNQD, for which the protein stability index is 2.21.
In the case of SLREYNDFLEEVEEIVFNLTNNFD, the protein stability index was 2.71.
Turning to SLREYNDFLEEVEEIVFNLTNNAD, the protein stability index was determined as 2.69.
Consider SLREYNDFLEEVEEIVFNLTNNMD, for which the protein stability index came out at 1.44.
Take SLREYNDFLEEVEEIVFNLTNNWD: the protein stability index was 1.57.
Turning to SLREYNDFLEEVEEIVFNLTNNCD, the protein stability index worked out at 2.47.
For the variant SLREYNDFLEEVEEIVFNLTNNND, the protein stability index came out at 2.35.
For SLREYNDFLEEVEEIVFNLTNNID, the protein stability index worked out at 1.98.
Turning to SLREYNDFLEEVEEIVFNLTNNDD, the protein stability index amounted to 2.92.
Same read-out and setting: to SLREYNDFLEEVEEIVFNLTNNKD belongs 2.08; to SLREYNDFLEEVEEIVFNLTNNGD, 2.73.
Regarding SLREYNDFLEEVEEIVFNLTNNSD, the protein stability index is 3.05.
As to SLREYNDFLEEVEEIVFNLTNNED, the protein stability index came to 2.82.
Take SLREYNDFLEEVEEIVFNLTNNLD: the protein stability index came to 1.64.
SLREYNDFLEEVEEIVFNLTNNPD: the protein stability index was 3.05.
With SLREYNDFLEEVEEIVFNLTNNHD, the protein stability index came out at 2.38.
With SLREYNDFLEEVEEIVFNLTNNTD, the protein stability index is 2.5.
In the case of SLREYNDFLEEVEEIVFNLTNNYD, the protein stability index was found to be 1.8.
SLREYNDFLEEVEEIVFNLTNNVK: the protein stability index was 1.81.
As to SLREYNDFLEEVEEIVFNLTNNVQ, the protein stability index came to 1.73.
The same measure, in the same setting: to SLREYNDFLEEVEEIVFNLTNNVL belongs 1.82; to SLREYNDFLEEVEEIVFNLTNNVA, 1.79.
Still for that read-out and setting: under SLREYNDFLEEVEEIVFNLTNNVP stands 2; under SLREYNDFLEEVEEIVFNLTNNVR, 1.26; under SLREYNDFLEEVEEIVFNLTNNVY, 1.9.
Regarding SLREYNDFLEEVEEIVFNLTNNVT, the protein stability index worked out at 1.82.
SLREYNDFLEEVEEIVFNLTNNVS: the protein stability index turned out to be 2.07.
The same measure, in the same setting: under SLREYNDFLEEVEEIVFNLTNNVN stands 1.31.
SLREYNDFLEEVEEIVFNLTNNVG: the protein stability index was determined as 2.61.
Regarding SLREYNDFLEEVEEIVFNLTNNVE, the protein stability index came to 2.47.
Regarding SLREYNDFLEEVEEIVFNLTNNVW, the protein stability index worked out at 1.54.
As to SLREYNDFLEEVEEIVFNLTNNVV, the protein stability index came to 1.65.
With SLREYNDFLEEVEEIVFNLTNNVI, the protein stability index is 1.85.
Regarding SLREYNDFLEEVEEIVFNLTNNVC, the protein stability index came out at 1.5.
In the case of SLREYNDFLEEVEEIVFNLTNNVF, the protein stability index was found to be 1.87.
SLREYNDFLEEVEEIVFNLTNNVH: the protein stability index stood at 1.88.
The same measure, in the same setting: under SLREYNDFLEEVEEIVFNLTNGVD stands 2.96; under SLREYNDFLEEVEEIVFNLTNCVD, 1.66; under SLREYNDFLEEVEEIVFNLTNEVD, 2.38.
Turning to SLREYNDFLEEVEEIVFNLTNVVD, the protein stability index was 1.9.
Regarding SLREYNDFLEEVEEIVFNLTNMVD, the protein stability index came to 1.44.
Consider SLREYNDFLEEVEEIVFNLTNSVD, for which the protein stability index amounted to 1.78.
SLREYNDFLEEVEEIVFNLTNYVD: the protein stability index is 1.38.
As to SLREYNDFLEEVEEIVFNLTNTVD, the protein stability index came out at 2.06.
Same read-out and setting: to SLREYNDFLEEVEEIVFNLTNLVD belongs 1.16.
On to SLREYNDFLEEVEEIVFNLTNRVD, for which the protein stability index amounted to 2.09.
Consider SLREYNDFLEEVEEIVFNLTNDVD, for which the protein stability index worked out at 1.98.
For SLREYNDFLEEVEEIVFNLTNWVD, the protein stability index was 2.97.
On the same count and under the same terms, under SLREYNDFLEEVEEIVFNLTNFVD stands 2.47; under SLREYNDFLEEVEEIVFNLTNHVD, 2.15.
Take SLREYNDFLEEVEEIVFNLTNPVD: the protein stability index worked out at 2.25.
As to SLREYNDFLEEVEEIVFNLTNKVD, the protein stability index was determined as 2.64.
As to SLREYNDFLEEVEEIVFNLTNIVD, the protein stability index is 2.25.
On to SLREYNDFLEEVEEIVFNLTNQVD, for which the protein stability index amounted to 1.84.

Variants of B2 are the subject of the next data set. Described as above. The settings on record: c terminus: a fixed tail appended.
In the case of DCMGIDRQHIPLTYLCERCQPRNL, the protein stability index worked out at 1.93.
For the variant DCMGIDRQHIPDTYLCDRCQPRNL, the protein stability index turned out to be 3.21.
For DCMGIDRQEIPDTYLCERCQPRNL, the protein stability index turned out to be 2.86.
On the same count and under the same terms, under DCMGIDRQPIPDTYLCERCQPRNL stands 2.12; under DCMGIDRQMIPDTYLCERCQPRNL, 2.16; under DCMGIDRQNIPDTYLCERCQPRNL, 2.65.
Still for that read-out and setting: to DCMGDDRQHIPDTYLCERCQPRNL belongs 2.87; to DCMGYDRQHIPDTYLCERCQPRNL, 2.61.
As for DCMGIDRQHISDTYLCERCQPRNL, the protein stability index was 2.23.
As for DCMGIDRQHICDTYLCERCQPRNL, the protein stability index came out at 4.15.
DCKGIDRQHIPDTYLCERCQPRNL: the protein stability index came out at 3.63.
Turning to DCCGIDRQHIPDTYLCERCQPRNL, the protein stability index was found to be 3.14.
DCYGIDRQHIPDTYLCERCQPRNL: the protein stability index turned out to be 3.03.
DCMGIDRQHIPDTYLCERGQPRNL: the protein stability index is 3.63.
Same read-out and setting: to DCMGIDRQHIPDQYLCERCQPRNL belongs 3.07; to DCMGIARQHIPDTYLCERCQPRNL, 3.27.
As for DCMGIDRQHIPDTYLCERCQPRNR, the protein stability index is 2.62.
Regarding DCMGIDRQHIPDTYLCERCQPRNM, the protein stability index was 2.69.
As to DCMGIDRQHIPDTYLCERCQPRNG, the protein stability index is 3.73.
The same measure, in the same setting: under DCMGIDRQHIPDTYLCERCQPRIL stands 2.29; under DCMGIDRQHIPDTYLCERCQIRNL, 2.5.
With DCMGIDRQHIPDTYLCERCQQRNL, the protein stability index is 3.93.
Regarding DCMGIDRQHIPDTYLCERCQTRNL, the protein stability index worked out at 2.95.
Same read-out and setting: to DCMGIDRQHIPDTYLCERCQDRNL belongs 4.21; to SCMGIDRQHIPDTYLCERCQPRNL, 3.17; to DMMGIDRQHIPDTYLCERCQPRNL, 2.89.
In the case of DNMGIDRQHIPDTYLCERCQPRNL, the protein stability index was 3.41.
Same read-out and setting: to DCMLIDRQHIPDTYLCERCQPRNL belongs 2.63.
On to DCMYIDRQHIPDTYLCERCQPRNL, for which the protein stability index came to 2.49.
On the same count and under the same terms, under DCMGIDRQHIPDTYLRERCQPRNL stands 3.67.
Regarding DCMGIDRQHIPDTYYCERCQPRNL, the protein stability index is 2.28.
Take DCMGIDRQHIPDTYKCERCQPRNL: the protein stability index is 4.
As to DCMGIDRQHIPDTYGCERCQPRNL, the protein stability index was 3.43.
In the case of DCMGIDRQHTPDTYLCERCQPRNL, the protein stability index came to 2.48.
On the same count and under the same terms, under DCMGIDRQHFPDTYLCERCQPRNL stands 2.54; under DCMGIDRQHLPDTYLCERCQPRNL, 3.02.
As for DCMGIDRQHKPDTYLCERCQPRNL, the protein stability index came to 3.04.
On the same count and under the same terms, under DCMGIDRQHIPDTYLCERCQPTNL stands 3.34.
For DCMGIDRQHIPDTYLCERCQPVNL, the protein stability index is 2.67.

The values above are taken from the supplement of paper PMC10567573.
